Results taken from paper PMC4889030 (Molecular cell, 2016).
Read-outs that look alike come from different tables or passages of the source. Where no end group is shown, it is not given here.

Assays:
Assay in all cases: pull-down
[1] = target: T1, full length ^FlagCRBN expressed in CRBN-KO 293FT cells (human, UniProt Q96SW2 1-442)
[2] = target: T1, full length ^FlagCRBN expressed in …; remark: listed apart in the source
^FlagCRBN H357Y = ^FlagCRBN H357Y (human, UniProt Q96SW2 1-442, H357Y)
Sequence of ^FlagCRBN H357Y (Q96SW2 whole entry H357Y): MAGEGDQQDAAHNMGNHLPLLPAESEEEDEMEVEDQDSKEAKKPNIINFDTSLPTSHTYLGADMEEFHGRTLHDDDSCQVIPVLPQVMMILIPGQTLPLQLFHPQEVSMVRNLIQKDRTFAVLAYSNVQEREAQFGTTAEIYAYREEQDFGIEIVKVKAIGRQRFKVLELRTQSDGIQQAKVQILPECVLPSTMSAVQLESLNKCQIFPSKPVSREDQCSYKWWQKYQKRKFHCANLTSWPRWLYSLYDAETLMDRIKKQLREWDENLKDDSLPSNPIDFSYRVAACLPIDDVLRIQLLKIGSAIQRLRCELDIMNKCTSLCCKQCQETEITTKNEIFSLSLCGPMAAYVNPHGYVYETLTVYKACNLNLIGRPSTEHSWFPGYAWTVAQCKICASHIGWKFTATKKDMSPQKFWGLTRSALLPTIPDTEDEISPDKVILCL

T1 sequence (Q96SW2 whole entry): as the sequence (Q96SW2 whole entry H357Y) above, with Y357H counted along it

Row | binding result [1] | binding result [2] | binding result (^FlagCRBN H357Y) | Binder
1 | binds | – | – | ASSHLNK(Ac)GIK(Ac)QVYMSLPQ (peptide, UniProt P15104 5-22, looked up, also: biotinylated, place not given here) [biotinylated synthetic GS peptide (amino acids 5-22 of GS), di-acetylated on K11 and K14]
2 | – | binds | – | ASSHLNKGIK(Ac)QVYMSLPQ (peptide, UniProt P15104 5-22, looked up, also: biotinylated, place not given here) [biotinylated synthetic GS peptide (amino acids 5-22 of GS), mono-acetylated on K14]
3 | – | binds | binds | ASSHLNK(Ac)GIKQVYMSLPQ (peptide, UniProt P15104 5-22, looked up, also: biotinylated, place not given here) [biotinylated synthetic GS peptide (amino acids 5-22 of GS), mono-acetylated on K11]
